Assay results published in US20160289747, “DETECTION OF NUCLEIC ACIDS BY STRAND INVASION BASED AMPLIFICATION” (ORION DIAGNOSTICA OY, published 2016).

T1: gp32 single-stranded DNA binding protein (Enterobacteria phage T4, UniProt P03695 P03695:1-301)
T1 sequence: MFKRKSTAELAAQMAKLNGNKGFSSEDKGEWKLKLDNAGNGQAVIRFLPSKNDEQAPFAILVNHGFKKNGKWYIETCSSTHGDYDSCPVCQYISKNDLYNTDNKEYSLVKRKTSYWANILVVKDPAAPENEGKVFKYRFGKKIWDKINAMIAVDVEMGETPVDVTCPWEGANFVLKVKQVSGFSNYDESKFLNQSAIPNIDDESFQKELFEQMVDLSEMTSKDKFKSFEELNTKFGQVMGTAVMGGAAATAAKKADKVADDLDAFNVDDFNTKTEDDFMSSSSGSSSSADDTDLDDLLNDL


Tests used:
[1] = target: T1, gp32 single-stranded DNA binding protein; assay: little or no fluorescence increase; settings: tags: New England Biolabs; label: fluorophore and quencher
Method: (§1) The effect of the single-strand binding protein, bacteriophage T4 gp32 (New England Biolabs), on signal from the same oligonucleotide probes used with UvsX was also elucidated. Similar concentrations of oligonucleotide probes to those used with UvsX were incubated in the presence or absence of 0.25 mg/ml of gp32 and 200 nM complementary template ((SEQ ID NO: 34 for probes with SEQ ID NO 1-8 or SEQ ID NO: 44 for probes with SEQ ID NO: 9 or 10) in a buffer containing 20 mM Tris-acetate pH 7.9, 50 mM potassium acetate, 10 mM Magnesium Acetate and 1 mM DTT.

UvsX recombinase [2] = target: T2, UvsX recombinase (Enterobacteria phage T4, UniProt P04529 P04529:1-391); assay: probe remained quenched; Mg, ATP, 40 C; settings: label: fluorophore and quencher
Method: (§2) The oligonucleotide probes were incubated in the presence or absence of 200 nM complementary template (SEQ ID NO: 34 for probes with SEQ ID NO 1-8, or SEQ ID NO: 44 for probes with SEQ ID NO 9 or 10) and 5 μM UvsX in buffer containing 20 mM Tris-acetate pH 8.0, 10 mM Magnesium acetate, 2 mM ATP, 60 mM Tris-Phosphocreatine and 0.025 U/μl Creatine Kinase. Fluorescence was measured after 20 minutes incubation at 40 degrees centigrade.

RecA [3] = target: T3, RecA (Escherichia coli, UniProt P0A7G6 P0A7G6:2-353); assay: no significant fluorescence increase; Mg, ATP; settings: tags: New England Biolabs; label: fluorophore and quencher
Method: (§3) The effect of Escherichia coli recombinase, RecA (New England Biolabs) on signal from oligonucleotide probes was also elucidated (FIG. 1d). Similar concentrations of oligonucleotide probes to those used in FIGS. 1a and 1b were incubated in the presence or absence of 100 μg/ml of RecA in a buffer containing 70 mM Tris-HCl pH 7.6.10 mM MgCl₂, 5 mM DTT and 10 mM ATP. […] However, the increase was not as high as that seen with T4 UvsX.

[4] = target: T1, gp32 single-stranded DNA binding protein; assay: fluorescence dequenching; 0.25 mg/ml gp32, Mg, K acetate; settings: tags: New England Biolabs; label: fluorophore and quencher
Method: as §1

UvsX recombinase [5] = target: T2, UvsX recombinase; assay: fluorescence dequenching; 5 uM UvsX, Mg, ATP, 40 C; settings: label: fluorophore and quencher
Method: as §2

RecA [6] = target: T3, RecA; assay: fluorescence increase, less than UvsX; Mg, ATP; settings: tags: New England Biolabs; label: fluorophore and quencher
Method: as §3

T3 sequence (P0A7G6 2-353, one chain of several): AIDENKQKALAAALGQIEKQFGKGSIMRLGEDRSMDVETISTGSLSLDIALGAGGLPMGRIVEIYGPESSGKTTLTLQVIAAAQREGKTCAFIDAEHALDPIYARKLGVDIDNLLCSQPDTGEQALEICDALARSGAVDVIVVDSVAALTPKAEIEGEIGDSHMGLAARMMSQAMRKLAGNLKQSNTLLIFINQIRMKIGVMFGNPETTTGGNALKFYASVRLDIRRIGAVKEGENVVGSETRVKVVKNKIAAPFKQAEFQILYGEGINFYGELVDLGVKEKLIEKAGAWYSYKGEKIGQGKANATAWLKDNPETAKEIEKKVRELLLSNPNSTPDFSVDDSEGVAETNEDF
T2 sequence (P04529 whole entry, one chain of several): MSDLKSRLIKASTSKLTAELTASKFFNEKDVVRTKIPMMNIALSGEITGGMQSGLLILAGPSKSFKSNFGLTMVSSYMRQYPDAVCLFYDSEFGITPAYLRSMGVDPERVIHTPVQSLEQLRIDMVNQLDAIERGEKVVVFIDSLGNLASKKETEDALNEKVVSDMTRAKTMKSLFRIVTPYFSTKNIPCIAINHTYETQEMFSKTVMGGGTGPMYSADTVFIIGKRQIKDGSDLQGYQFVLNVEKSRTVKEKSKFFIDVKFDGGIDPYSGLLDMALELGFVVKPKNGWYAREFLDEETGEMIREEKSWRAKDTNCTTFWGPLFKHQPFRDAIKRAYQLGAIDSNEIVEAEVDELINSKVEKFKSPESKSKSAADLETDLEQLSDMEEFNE

Row | Binder | binding result [1] | binding result (UvsX recombinase [2]) | binding result (RecA [3]) | binding result [4] | binding result (UvsX recombinase [5]) | binding result (RecA [6])
1 | AGCCGAUGACUAAUGC (ssRNA) [RNA 16] | no binding | no binding |  |  |  | 
2 | ACGAAAGCCGAUGACUAAUGC (ssRNA) [RNA 21] | no binding | no binding | no binding |  |  | 
3 | AGCCGAUGACUAAUGC (ssRNA, 2'-OMe) [2'-O-methyl RNA 16] | no binding | no binding |  |  |  | 
4 | ACGAAAGCCGAUGACUAAUGC (ssRNA, 2'-F) [2'-fluoro RNA 21] | no binding | no binding | no binding |  |  | 
5 | AGCCGAUGACUAAUGC (ssRNA, 2'-F) [2'-fluoro RNA 16] | no binding | no binding |  |  |  | 
6 | AGCCGATGACTAATGC (ssDNA) [DNA 16] |  |  |  | binds | binds | 
7 | ACGAAAGCCGAUGACUAAUGC (ssRNA, 2'-OMe) [2'-O-methyl RNA 21] | no binding | no binding | no binding |  |  | 
8 | AGUUGAUGUGUA (XNA, LNA) [LNA 12] | no binding | no binding | no binding |  |  | 
9 | ACGAAAGCCGATGACTAATGC (ssDNA) [DNA 21] |  |  |  | binds | binds | binds
